In patent US10253076B2, “Peptides and combination of peptides for use in immunotherapy against ovarian cancer and other cancers” (immatics biotechnologies GmbH, priority 2015, dated 2019):

Biological target: HLA-A*02:01 (Homo sapiens, UniProt P04439, D140Y/D185E/D98H/E176V/E277Q/G131W/G231S/I119V/I121R/I166T/I218V/L300P/L318F/N151K/N90K/P208A/P217A/Q86G/Q94H/R138H/R169H/T345S)
Assay: MHC binding assay (UV-ligand exchange, beta2m ELISA, peptide exchange yield)
Details: binding of HLA-class I restricted peptides to HLA-A*02:01, ranged by peptide exchange yield (UV-ligand exchange, β2m ELISA)
Text: Candidate peptides for T cell based therapies according to the present invention were further tested for their MHC binding capacity (affinity). The individual peptide-MHC complexes were produced by UV-ligand exchange, where a UV-sensitive peptide is cleaved upon UV-irradiation, and exchanged with the peptide of interest as analyzed. Only peptide candidates that can effectively bind and stabilize the peptide-receptive MHC molecules prevent dissociation of the MHC complexes. To determine the yield of the exchange reaction, an ELISA was performed based on the detection of the light chain (β2m) of stabilized MHC complexes. The assay was performed as generally described in Rodenko et al. (Rodenko et al., 2006).
96 well MAXISorp plates (NUNC) were coated over night with 2ug/ml streptavidin in PBS at room temperature, washed 4× and blocked for 1 h at 37° C. in 2% BSA containing blocking buffer. […] Peptide-MHC monomers of the UV-exchange reaction were diluted 100 fold in blocking buffer. Samples were incubated for 1 h at 37° C., washed four times, incubated with 2ug/ml HRP conjugated anti-82m for 1 h at 37° C., washed again and detected with TMB solution that is stopped with […]. Absorption was measured at 450 nm. Candidate peptides that show a high exchange yield (preferably higher than 50%, most preferred higher than 75%) are generally preferred for a generation and production of antibodies or fragments thereof, and/or T cell receptors or fragments thereof, as they show sufficient avidity to the MHC molecules and prevent dissociation of the MHC complexes.

Peptide exchange | Substance
″+++″ (≥50% = +++) | 556 (FLTDLEDLTL; listed as Homo sapiens) [compound 556]
″++″ (≥20% = ++) | 32 (KLDDLTQDLTV; listed as Homo sapiens) [compound 32]
″+++″ (≥50% = +++) | 614 (LLLPDQPPYHL; listed as Homo sapiens) [compound 614]
″++″ (≥20% = ++) | 363 (KVLDVSDLESV; listed as Homo sapiens) [compound 363]
″+++″ (≥50% = +++) | 117 (ILPDGEDFLAV; listed as Homo sapiens) [compound 117]
″+++″ (≥50% = +++) | 327 (GLAPFTEGISFV; listed as Homo sapiens) [compound 327]
″++″ (≥20% = ++) | 218 (SALEELVNV; listed as Homo sapiens) [compound 218]
″+++″ (≥50% = +++) | 612 (YLYNEGLSV; listed as Homo sapiens) [compound 612]
″++″ (≥20% = ++) | 274 (SLLFSLFEA; listed as Homo sapiens) [compound 274]
″++++″ (≥75% = ++++) | 235 (YLNDLHEVLL; listed as Homo sapiens) [compound 235]
″++++″ (≥75% = ++++) | 585 (ALWDLAADKQTL; listed as Homo sapiens) [compound 585]
″+++″ (≥50% = +++) | 481 (GLIEDYEALL; listed as Homo sapiens) [compound 481]
″+++″ (≥50% = +++) | 475 (LLLNEEALAQI; listed as Homo sapiens) [compound 475]
″+++″ (≥50% = +++) | 161 (ALLEGVNTV; listed as Homo sapiens) [compound 161]
″++″ (≥20% = ++) | 24 (SLSDGLEEV; listed as Homo sapiens) [compound 24]
″+++″ (≥50% = +++) | 521 (MLLTKLPTI; listed as Homo sapiens) [compound 521]
″++++″ (≥75% = ++++) | 305 (SIANFSEFYV; listed as Homo sapiens) [compound 305]
″+++″ (≥50% = +++) | 66 (FLDENIGGVAV; listed as Homo sapiens) [compound 66]
″+++″ (≥50% = +++) | 13 (YLMDESLNL; listed as Homo sapiens) [compound 13]
″++++″ (≥75% = ++++) | 178 (ALTEIAFVV; listed as Homo sapiens) [compound 178]
″++++″ (≥75% = ++++) | 55 (SLLDLETLSL; listed as Homo sapiens) [compound 55]
″++++″ (≥75% = ++++) | 77 (ILVEADGAWVV; listed as Homo sapiens) [compound 77]
″++″ (≥20% = ++) | 220 (LLQKFVPEI; listed as Homo sapiens) [compound 220]
″+++″ (≥50% = +++) | 448 (NLLETKLQL; listed as Homo sapiens) [compound 448]

Peptide exchange | Substance
″+++″ (≥50% = +++) | 492 (SLFDGFADGLGV; listed as Homo sapiens) [compound 492]
″++″ (≥20% = ++) | 447 (QLVPALAKV; listed as Homo sapiens) [compound 447]
″+++″ (≥50% = +++) | 225 (SLLKVLPAL; listed as Homo sapiens) [compound 225]
″+++″ (≥50% = +++) | 6 (VLVSDGVHSV; listed as Homo sapiens) [compound 6]
″++″ (≥20% = ++) | 412 (YLDDLNEGVYI; listed as Homo sapiens) [compound 412]
″+++″ (≥50% = +++) | 28 (QLLDETSAITL; listed as Homo sapiens) [compound 28]
″+++″ (≥50% = +++) | 155 (RVANLHFPSV; listed as Homo sapiens) [compound 155]
″+++″ (≥50% = +++) | 25 (FLPDEPYIKV; listed as Homo sapiens) [compound 25]
″++″ (≥20% = ++) | 566 (VIADGGIQNV; listed as Homo sapiens) [compound 566]
″+++″ (≥50% = +++) | 442 (GLLGGGGVLGV; listed as Homo sapiens) [compound 442]
″+++″ (≥50% = +++) | 396 (ALLPDLPAL; listed as Homo sapiens) [compound 396]
″+++″ (≥50% = +++) | 332 (YLISELEAA; listed as Homo sapiens) [compound 332]
″+++″ (≥50% = +++) | 345 (VIWKALIHL; listed as Homo sapiens) [compound 345]
″+++″ (≥50% = +++) | 282 (LLADVVPTT; listed as Homo sapiens) [compound 282]
″+++″ (≥50% = +++) | 547 (TLDITPHTV; listed as Homo sapiens) [compound 547]
″++″ (≥20% = ++) | 18 (YLVAKLVEV; listed as Homo sapiens) [compound 18]
″+++″ (≥50% = +++) | 69 (FQLDPSSGVLVTV; listed as Homo sapiens) [compound 69]
″+++″ (≥50% = +++) | 78 (SLFSSLEPQIQPV; listed as Homo sapiens) [compound 78]
″+++″ (≥50% = +++) | 263 (LLVSNLDFGV; listed as Homo sapiens) [compound 263]
″+++″ (≥50% = +++) | 550 (FLYDEIEAEVNL; listed as Homo sapiens) [compound 550]
″++″ (≥20% = ++) | 157 (SLNDEVPEV; listed as Homo sapiens) [compound 157]
″++″ (≥20% = ++) | 538 (LLLAHIIAL; listed as Homo sapiens) [compound 538]
″+++″ (≥50% = +++) | 97 (SLINGSFLV; listed as Homo sapiens) [compound 97]
″+++″ (≥50% = +++) | 444 (GLLRDEALAEV; listed as Homo sapiens) [compound 444]

Peptide exchange | Substance
″+++″ (≥50% = +++) | 495 (FIFSEKPVFV; listed as Homo sapiens) [compound 495]
″+++″ (≥50% = +++) | 528 (SVAEGRALMSV; listed as Homo sapiens) [compound 528]
″+++″ (≥50% = +++) | 144 (YIMEPSIFNTL; listed as Homo sapiens) [compound 144]
″++++″ (≥75% = ++++) | 91 (IMQDFPAEIFL; listed as Homo sapiens) [compound 91]
″+++″ (≥50% = +++) | 562 (YLEELPEKLKL; listed as Homo sapiens) [compound 562]
″+++″ (≥50% = +++) | 14 (AAYGGLNEKSFV; listed as Homo sapiens) [compound 14]
″+++″ (≥50% = +++) | 174 (ALAQYLITA; listed as Homo sapiens) [compound 174]
″+++″ (≥50% = +++) | 250 (ALSEEGLLVYL; listed as Homo sapiens) [compound 250]
″+″ (≥10% = +) | 116 (YHIDEEVGF; listed as Homo sapiens) [compound 116]
″+++″ (≥50% = +++) | 509 (FLFDTKPLIV; listed as Homo sapiens) [compound 509]
″++″ (≥20% = ++) | 392 (ALLHPQGFEV; listed as Homo sapiens) [compound 392]
″+++″ (≥50% = +++) | 617 (ALMYESEKVGV; listed as Homo sapiens) [compound 617]
″++″ (≥20% = ++) | 526 (RLAEVGQYEQV; listed as Homo sapiens) [compound 526]
″+++″ (≥50% = +++) | 238 (YLISFQTHI; listed as Homo sapiens) [compound 238]
″++″ (≥20% = ++) | 93 (LLQAIKLYL; listed as Homo sapiens) [compound 93]
″+++″ (≥50% = +++) | 308 (SQYSGQLHEV; listed as Homo sapiens) [compound 308]
″+++″ (≥50% = +++) | 35 (KINDTIYEV; listed as Homo sapiens) [compound 35]
″++″ (≥20% = ++) | 318 (GLINTGVLSV; listed as Homo sapiens) [compound 318]
″+++″ (≥50% = +++) | 578 (FLDPGGPMMKL; listed as Homo sapiens) [compound 578]
″+++″ (≥50% = +++) | 17 (GLLPGDRLVSV; listed as Homo sapiens) [compound 17]
″+++″ (≥50% = +++) | 549 (AMLENASDIKL; listed as Homo sapiens) [compound 549]
″++++″ (≥75% = ++++) | 10 (FLATFPLAAV; listed as Homo sapiens) [compound 10]
″+++″ (≥50% = +++) | 83 (ILAPTVMMI; listed as Homo sapiens) [compound 83]
